Numbering of substitutions follows the chain as printed.
T1: extracellular domain (ECD) of human αKlotho, amino acids E34-S981 with C-terminal 6-His tag (R&D Systems … (human, UniProt Q9UEF7 34-981))
T1 construct: range 34-981; also called αKlotho (aa34-981); target antigen
T1 sequence: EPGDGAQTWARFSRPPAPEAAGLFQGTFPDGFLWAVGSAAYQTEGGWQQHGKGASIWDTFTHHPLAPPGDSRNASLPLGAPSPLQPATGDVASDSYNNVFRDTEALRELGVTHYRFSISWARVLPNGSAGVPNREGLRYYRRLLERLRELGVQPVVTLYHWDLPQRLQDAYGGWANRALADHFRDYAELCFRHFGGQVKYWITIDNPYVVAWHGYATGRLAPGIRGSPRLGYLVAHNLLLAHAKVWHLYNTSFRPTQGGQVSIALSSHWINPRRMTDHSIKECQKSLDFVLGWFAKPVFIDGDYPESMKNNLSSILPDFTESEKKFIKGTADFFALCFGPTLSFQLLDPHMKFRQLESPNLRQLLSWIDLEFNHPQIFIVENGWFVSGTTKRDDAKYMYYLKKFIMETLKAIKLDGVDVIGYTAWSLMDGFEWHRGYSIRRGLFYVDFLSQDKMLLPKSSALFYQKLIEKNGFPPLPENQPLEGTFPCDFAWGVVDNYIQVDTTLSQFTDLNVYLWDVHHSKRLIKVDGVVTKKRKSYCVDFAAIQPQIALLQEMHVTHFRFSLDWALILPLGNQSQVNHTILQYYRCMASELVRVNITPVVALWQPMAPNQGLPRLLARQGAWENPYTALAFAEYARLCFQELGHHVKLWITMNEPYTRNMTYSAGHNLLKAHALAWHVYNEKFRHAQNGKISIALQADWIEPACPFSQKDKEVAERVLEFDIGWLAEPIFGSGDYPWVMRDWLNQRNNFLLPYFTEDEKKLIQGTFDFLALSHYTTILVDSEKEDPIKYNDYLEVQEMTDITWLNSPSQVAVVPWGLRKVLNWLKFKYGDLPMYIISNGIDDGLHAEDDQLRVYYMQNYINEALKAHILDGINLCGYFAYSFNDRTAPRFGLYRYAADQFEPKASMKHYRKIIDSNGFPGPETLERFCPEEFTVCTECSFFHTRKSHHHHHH

B1: anti-αKlotho Fab clone 4805 (Fab, V domains shown)
VH: EVQLVESGGGLVQPGGSLRLSCAASGFNLSYYSMHWVRQAPGKGLEWVASISSYYGSTYYADSVKGRFTISADTSKNTAYLQMNSLRAEDTAVYYCARGGGYYSGPYAGFDYWGQGTLVTVSS
VL: DIQMTQSPSSLSASVGDRVTITCRASQSVSSAVAWYQQKPGKAPKLLIYSASSLYSGVPSRFSGSRSGTDFTLTISSLQPEDFATYYCQQSSGWYHFLFTFGQGTKVEIKR
notes: Fab (also as Fab-phage); FLAG tag on light chain; also called sb174
B2: anti-αKlotho Fab clone 4830 (Fab, V domains shown)
VH: EVQLVESGGGLVQPGGSLRLSCAASGFNIYYSSIHWVRQAPGKGLEWVASIYPYYSYTYYADSVKGRFTISADTSKNTAYLQMNSLRAEDTAVYYCARSVASALDYWGQGTLVTVSS
VL: B1 VL with S91Y, G93W, W94Y, Y95W, H96Y, F97S, L98P, F99I
notes: Fab (also as Fab-phage); FLAG tag on light chain; also called sb199
B3: anti-αKlotho Fab clone 4804 (Fab, V domains shown)
VH: EVQLVESGGGLVQPGGSLRLSCAASGFNLYSYSIHWVRQAPGKGLEWVAYISSSSGSTYYADSVKGRFTISADTSKNTAYLQMNSLRAEDTAVYYCARGWGGGYWFYPVYGIDYWGQGTLVTVSS
VL: DIQMTQSPSSLSASVGDRVTITCRASQSVSSAVAWYQQKPGKAPKLLIYSASSLYSGVPSRFSGSRSGTDFTLTISSLQPEDFATYYCQQSSYSLITFGQGTKVEIKR
notes: Fab (also as Fab-phage); FLAG tag on light chain C-terminus; also called sb173
B4: anti-αKlotho Fab clone 4832 (Fab, V domains shown)
VH: EVQLVESGGGLVQPGGSLRLSCAASGFNFSSSSIHWVRQAPGKGLEWVAYISSSYGYTSYADSVKGRFTISADTSKNTAYLQMNSLRAEDTAVYYCARASGWFSHFYPAAVSGMDYWGQGTLVTVSS
VL: B3 VL
notes: Fab (also as Fab-phage); FLAG tag on light chain; also called sb201
B5: anti-αKlotho Fab clone 4807 (Fab, V domains shown)
VH: EVQLVESGGGLVQPGGSLRLSCAASGFNLSSSYMHWVRQAPGKGLEWVASIYPSYGSTSYADSVKGRFTISADTSKNTAYLQMNSLRAEDTAVYYCARGVVPSYYYWFWPYGAIDYWGQGTLVTVSS
VL: B3 VL
notes: Fab (also as Fab-phage); FLAG tag on light chain; also called sb176
B6: anti-αKlotho Fab clone 4829 (Fab, V domains shown)
VH: EVQLVESGGGLVQPGGSLRLSCAASGFNISSYYIHWVRQAPGKGLEWVASIYSSYGYTSYADSVKGRFTISADTSKNTAYLQMNSLRAEDTAVYYCARYSWSPYWWWAYSGLDYWGQGTLVTVSS
VL: DIQMTQSPSSLSASVGDRVTITCRASQSVSSAVAWYQQKPGKAPKLLIYSASSLYSGVPSRFSGSRSGTDFTLTISSLQPEDFATYYCQQGGGLITFGQGTKVEIKR
notes: Fab (also as Fab-phage); FLAG tag on light chain; also called sb198
B7: anti-αKlotho Fab clone 4833 (Fab, V domains shown)
VH: EVQLVESGGGLVQPGGSLRLSCAASGFNLSSYYMHWVRQAPGKGLEWVASIYPSYSSTYYADSVKGRFTISADTSKNTAYLQMNSLRAEDTAVYYCARSSYSVYFWWYVSAMDYWGQGTLVTVSS
VL: DIQMTQSPSSLSASVGDRVTITCRASQSVSSAVAWYQQKPGKAPKLLIYSASSLYSGVPSRFSGSRSGTDFTLTISSLQPEDFATYYCQQSSHGHYPITFGQGTKVEIKR
notes: Fab (also as Fab-phage); FLAG tag on light chain; also called sb202

Assays:
[1] = target: T1, extracellular domain (ECD) of human …; assay: SPR, Fab captured by anti-H+L antibody, αKlotho injected
Description: (§1) Affinity estimates for each of the antibodies were determined by surface plasmon resonance (SPR). Fabs were immobilized using an anti-H+L antibody and serial dilutions of αKlotho were injected.

[2] = target: T1, extracellular domain (ECD) of human …; assay: SPR, Fab captured by anti-H+L IgG, αKlotho injected at 50 to 6.25 ug/ml, Langmuir fit
Description: as §1

[3] = target: T2, bovine serum albumin (bovine, UniProt P02769 25-607); assay: Fab ELISA, purified Fab 5 ug/ml on immobilised BSA, anti-Flag-HRP, A450
T2 construct: also called BSA
Description: FIG. 10 is a graph showing absorbance values of Fab ELISAs with additional αKlotho antibodies. Purified Fabs [5 ug/ml] were incubated with immobilized αKlotho (1 ug/ml) or bovine serum albumin (BSA), as a negative control. After washing off unbound Fab, bound Fab were detected using an HRP-conjugated anti-Flag anti-body (Fabs have Flag-tag on the light chain). Colorimetric HRP reagents allow for absorbance readings at 450 nm.

[4] = target: T1, extracellular domain (ECD) of human …; assay: SPR, Fab captured by anti-H+L IgG, αKlotho injected at 50 to 6.25 ug/ml, Langmuir fit [continued]
Description: as §1

T2 sequence (P02769 25-607 limits assumed): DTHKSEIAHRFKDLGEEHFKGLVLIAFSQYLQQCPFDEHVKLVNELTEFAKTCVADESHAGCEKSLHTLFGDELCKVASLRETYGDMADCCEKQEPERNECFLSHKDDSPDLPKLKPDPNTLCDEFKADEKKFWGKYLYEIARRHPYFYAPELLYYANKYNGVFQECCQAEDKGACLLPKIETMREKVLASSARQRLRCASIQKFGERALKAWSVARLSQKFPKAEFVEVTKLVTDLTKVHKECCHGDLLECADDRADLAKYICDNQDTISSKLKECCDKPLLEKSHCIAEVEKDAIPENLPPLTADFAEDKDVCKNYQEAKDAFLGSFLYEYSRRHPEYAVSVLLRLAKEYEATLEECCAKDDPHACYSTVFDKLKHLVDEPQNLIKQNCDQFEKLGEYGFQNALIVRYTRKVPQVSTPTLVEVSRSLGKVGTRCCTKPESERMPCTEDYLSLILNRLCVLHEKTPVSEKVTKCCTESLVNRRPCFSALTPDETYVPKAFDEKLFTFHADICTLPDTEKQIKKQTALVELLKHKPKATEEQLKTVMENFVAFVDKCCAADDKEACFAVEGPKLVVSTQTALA

| Binder | Kd [1] | Kd [2] | koff [2] | kon [2] | binding result [3] | Kd [4] | koff [4] | kon [4] |
| --- | --- | --- | --- | --- | --- | --- | --- | --- |
| B1 | 0.24 nM | 0.117 nM | 0.000183 s⁻¹ | 1.57e+06 M⁻¹ s⁻¹ | – | – | – | – |
| B2 | 2.9 nM | – | – | – | no binding (tested: 5 ug/ml) | 1.53 nM | 0.00113 s⁻¹ | 741000 M⁻¹ s⁻¹ |
| B3 | 0.77 nM | 0.516 nM | 0.000738 s⁻¹ | 1.43e+06 M⁻¹ s⁻¹ | – | – | – | – |
| B4 | 0.515 nM | – | – | – | no binding (tested: 5 ug/ml) | 0.123 nM | 4.61e-05 s⁻¹ | 374000 M⁻¹ s⁻¹ |
| B5 | 6.1 nM | 3.5 nM | 0.00244 s⁻¹ | 698000 M⁻¹ s⁻¹ | – | – | – | – |
| B6 | 1.8 nM | – | – | – | no binding (tested: 5 ug/ml) | 0.907 nM | 0.000614 s⁻¹ | 678000 M⁻¹ s⁻¹ |
| B7 | 1.4 nM | – | – | – | no binding (tested: 5 ug/ml) | 0.703 nM | 0.000519 s⁻¹ | 739000 M⁻¹ s⁻¹ |
